Reference: patent publication US11254745 (CROWN BIOSCIENCE, dated 2022)

Key:
[1] = target: T1, extracellular domain of hCD4 fused with a histidine tag (hCD4-HisTag) (human, UniProt P01730 26-396); assay: Biacore T200 SPR, antibody captured on Protein A, CD4-HisTag analyte, 1:1 fit, 25 C
T1 construct: extracellular domain; also called human CD4-HisTag; not shown: histidine tag
Experimental: The binding kinetics between CD4 and CD4 antibodies were measured by Biacore™ analysis, which was performed at 25° C. on a Biacore™ T200 instrument. Protein A (GE, Cat. No:29139131-AA) was diluted with 10 mM pH 5.0 sodium acetate and immobilized onto reference and experiment flow cells of a CM5 biosensor chip to around 15000 RU using an amine coupling kit (GE, BR10050). In the beginning of each cycle, diluted test antibody (1.5 µg/mL) was injected over experiment flow cell for 1 minute to be captured. CD4-HisTag analyte series were prepared by diluting the stocks with running buffer to 100 nM followed by 2-fold serial dilution in the same buffer down to 0.78 nM. Analytes were injected in series over the reference and experiment flow cells for 3 minutes at a flow rate of 30
μL/minute. Running buffer (PBS with 0.05% P20) was allowed to flow over for 10 minutes at a flow rate of 30 μL/minute. At the end of each cycle, the biosensor surface was regenerated with 3-minute injection of 10 mM pH 2.0 Glycine-HCl buffer at a flow rate of 10 μL/minute. For each analyte sample injection (i.e., each cycle), binding responses obtained from the experimental biosensor surface were double referenced by subtracting simultaneously recorded responses from the reference surface followed by additional subtraction of responses from a single referenced running buffer sample. The association and dissociation rate constants (ka and kd) were determined simultaneously by fitting double-referenced sensorgrams of the entire titration series to Langmuir model (1:1) using Biaevaluation software. The dissociation constant, KD, was calculated from the determined rate constants by the equation KD=kd/ka.

[2] = target: T2, human CD4 on 293T cells stably expressing CD4 (CD4-293T) (human, UniProt P01730 26-458); assay: FACS on 293T cells expressing human CD4, MFI; table under the graph (unit from the graph's axis); Table 8 of the text gives this value to 2B6
T2 construct: whole, on cells; also called 293T-CD4 cells; hCD4 (FACS)
Experimental: (§1) Cell binding analysis of anti-CD4 antibody was performed using 293T cell line stably expressing CD4 (CD4-293T). 2*10^5 CD4-293T cells were added to each well of 96-well plate and incubated with the indicated hybridoma supernatant or a serial concentrations of purified antibody (starting from 20 μg/mL) at 4° C. for 1 h. After the cells were washed three times with FACS buffer, the secondary antibody (PE Goat anti-mouse: 1:200) was added to the cells at 100 μl/well, and incubated at 4° C. for 40 min. Cells were washed three times with FACS buffer and analyzed by FACS Array. The binding EC50 of purified antibody was calculated with GraphPad Prism 5.
(§2) DNA encoding humanized 2B6, 29B7 and MT412 antibody light chain and heavy chain was synthesized and cloned to the expression vector pcDNA3.1 (Invitrogen, Cat. No: V-790). Freestyle 293 cells (200 mL at 10^6/mL) were transfected with 100 µg of each of the humanized heavy and light chain expression plasmids and cultured for 6 days at 37° C. The humanized antibody in the supernatant was then purified with Protein-A column (GE healthcare). Binding of the chimeric antibody with CD4 was measured by ELISA (FIG. 6, Table 7) and FACS (FIG. 7, Table 8), and the methods used were similar to those described above in Example 2.

[3] = target: T2, human CD4 on 293T cells stably …; assay: FACS, humanized antibody on CD4-293T cells
Experimental: as §1, §2

[4] = target: T3, extracellular domain of hCD4 fused with human Fc tag (hCD4-hFc) (human, UniProt P01730 26-396); assay: ELISA, humanized antibody on hCD4, method similar to Example 2
T3 construct: extracellular domain; also called human CD4-hFc; hCD4 (ELISA); not shown: human Fc tag
Experimental: (§3) Example 2: Selection of the Anti-hCD4 Hybridoma Antibodies Based on Binding and Gene Reporter Assays The binding interaction between hybridoma antibody and human CD4-hFc was measured by ELISA. 96-well plates (Costar, Cat. No:9018) were coated with 100 μL of 2 μg/ml CD4-hFc (CrownBio) in PBS buffer (Hyclone, Cat. No: SH30256.01B) overnight at 4° C. The wells were aspirated and non-specific binding sites were blocked by adding 200 μL of blocking buffer containing 1% (w/v) of bovine serum albumin (BSA, Roche, Cat. No: 738328) and incubating for 1 hour at 37° C. After the plates are washed three times with PBS buffer containing 0.05% (v/v) Tween™ 20 (Sigma, Cat. No: P1379), 100 μL hybridoma supernatant or a serial concentrations of purified antibody (starting from 20 μg/mL) diluted in blocking buffer was added to each well and incubated at room temperature for 1 hour. The plates were washed and incubated with 100 μL/well of Goat anti-Mouse IgG (Thermo, Cat. No:31432) in blocking buffer for 60 min. After the plates were washed, 100 μL/well of substrate solution TMB (eBioscience, Cat. No:00-4201-56) was added, and the plates were incubated for 2 min at room temperature before 100 μL/well of 2N H_2SO_4 was added to stop the reaction. The colorimetric signals were monitored at 450 nm using a SpectraMax Plus microplate reader (Molecular Devices). For the purified antibody, data were analyzed using GraphPad Prism 5 to calculated the $EC50$.
as §2

[5] = target: T3, extracellular domain of hCD4 fused with …; assay: ELISA on human CD4, OD450; table under the graph (unit from the graph's axis); Table 7 of the text gives this value to 2B6
Experimental: (§4) Example 2: Selection of the Anti-hCD4 Hybridoma Antibodies Based on Binding and Gene Reporter Assays The binding interaction between hybridoma antibody and human CD4-hFc was measured by ELISA. 96-well plates (Costar, Cat. No:9018) were coated with 100 μL of 2 μg/ml CD4-hFc (CrownBio) in PBS buffer (Hyclone, Cat. No: SH30256.01B) overnight at 4° C. The wells were aspirated and non-specific binding sites were blocked by adding 200 μL of blocking buffer containing 1% (w/v) of bovine serum albumin (BSA, Roche, Cat. No: 738328) and incubating for 1 hour at 37° C. […] The colorimetric signals were monitored at 450 nm using a SpectraMax Plus microplate reader (Molecular Devices). For the purified antibody, data were analyzed using GraphPad Prism 5 to calculated the $EC50$.
(§5) DNA encoding humanized 2B6, 29B7 and MT412 antibody light chain and heavy chain was synthesized and cloned to the expression vector pcDNA3.1 (Invitrogen, Cat. No: V-790). […] Binding of the chimeric antibody with CD4 was measured by ELISA (FIG. 6, Table 7) and FACS (FIG. 7, Table 8), and the methods used were similar to those described above in Example 2.

[6] = target: T3, extracellular domain of hCD4 fused with …; assay: ELISA on human CD4, OD450; table under the graph (unit from the graph's axis); Table 7 of the text gives this value to MT412
Experimental: as §4, §5

[7] = target: T2, human CD4 on 293T cells stably …; assay: FACS on 293T cells expressing human CD4, MFI; table under the graph (unit from the graph's axis); Table 8 of the text gives this value to MT412
Experimental: as §1, §2

[8] = target: T3, extracellular domain of hCD4 fused with …; assay: ELISA, chimeric antibody on hCD4, method similar to Example 2
Experimental: as §3
(§6) Freestyle 293 cells (200 mL at 1*10^6/mL) were transfected with 100 µg of each of the chimeric heavy and light chain expression plasmids and cultured for 6 days at 37° C. The chimeric antibody in the supernatant was then purified with Protein-A column (GE healthcare). Binding of the chimeric antibody with CD4 was measured by ELISA (FIG. 3, Table 5) and FACS (FIG. 4, Table 6), using the similar methods described above in Example 2.

[9] = target: T2, human CD4 on 293T cells stably …; assay: FACS, chimeric antibody on CD4-293T cells
Experimental: as §1, §6

[10] = target: T2, human CD4 on 293T cells stably …; assay: FACS on 293T cells expressing human CD4, MFI; table under the graph (unit from the graph's axis); Table 6 of the text gives this value to MT412
Experimental: as §1, §6

[11] = target: T3, extracellular domain of hCD4 fused with …; assay: ELISA on human CD4, OD450; table under the graph (unit from the graph's axis); Table 7 of the text gives this value to 29B7
Experimental: as §4, §5

[12] = target: T2, human CD4 on 293T cells stably …; assay: FACS on 293T cells expressing human CD4, MFI; table under the graph (unit from the graph's axis); Table 8 of the text gives this value to 29B7
Experimental: as §1, §2

| Kd [1] [nM] | koff [1] [s⁻¹] | kon [1] [M⁻¹ s⁻¹] | EC50 [2] [µg/mL] | EC50 [3] [µg/mL] | EC50 [4] [µg/mL] | EC50 [5] [µg/mL] | EC50 [6] [µg/mL] | EC50 [7] [µg/mL] | EC50 [8] [µg/mL] | EC50 [9] [µg/mL] | EC50 [10] [µg/mL] | EC50 [11] [µg/mL] | EC50 [12] [µg/mL] | Binder |
| --- | --- | --- | --- | --- | --- | --- | --- | --- | --- | --- | --- | --- | --- | --- |
| 1.8 | 0.00199 | 1.11e+06 | 0.211 | 0.183 | 0.0116 | 0.0116 | – | – | – | – | – | – | – | MT412 humanized anti-CD4 antibody (antibody, V domains shown, Expressed as heavy and light chains in Freestyle 293 cells; The description says only that humanized antibodies may have human IgG1 and human kappa constant regions; also called Humanized MT412) VH: QIQLVQSGSELKKPGASVKVSCKASGYTFTDYSMHWVRQAPGQGLEWMGWINTETGEPTYADDFKGRFVFSLDTSVSTAYLQISSLKAEDTAVYYCAREDYYGHDGFLYWGQGTLVTVSS VL: DIQMTQSPSFLSASVGDRVTITCKASQDVVTTVAWYQQKPGKAPKLLIYWASLRHTGVPSRFSGSGSGTEFTLTISSLQPEDFATYFCQQYSSYPYTFGQGTKLEIKR |
| 0.444 | 0.000457 | 1.03e+06 | – | 0.182 | 0.0056 | – | 0.0116 | 0.183 | – | – | – | – | – | 29B7 humanized anti-CD4 antibody (antibody, V domains shown, Expressed as heavy and light chains in Freestyle 293 cells; The description says only that humanized antibodies may have human IgG1 and human kappa constant regions; also called Humanized 29B7) VH: QVQLVQSGAEVKKPGASVKVSCKASGDSLNTHWMHWVRQAPGQRLEWIGYINPYTGSGEYSQKFKGRATLTADISASTAYMELSSLRSEDTAVYYCAYDSTGAMDYWGQGTLVTVSS VL: DIQMTQSPSSLSASVGDRVTITCKASQDINRYLSWFQQKPGKAPKTPIYRADRSVDGVPSRFSGSGSGQDYTLTISSLQPEDFATYYCQQYDEFPYTFGQGTKLEIK |
| 0.0843 | 5.98e-05 | 709000 | – | – | – | – | – | – | 0.0243 | 0.401 | 0.515 | – | – | Chimeric 29B7 anti-CD4 antibody (antibody, human IgG1, kappa, V domains shown) VH: QVQLQQSGAELAKPGASVKMSCKTSADSLNTHWMHWVKQRPGQGLEWIGYINPYTGSGEYSQKFKGKATLTADISSSTAYMQLISLTSEDSAVYYCAYDSTGAMDYWGQGTSVTVSS VL: DIKMTQSPSSMYASLGERITITCKASQDINRYLSWFQQKPGKSPKTPIYRADRSVDGVPSRFSGSGSGQDYSLTISSLEYEDMGIYYCQQYDEFPYTFGGGTKLEIKR |
| 0.152 | 7.89e-05 | 520000 | – | 0.211 | 0.0116 | – | – | – | – | – | – | 0.0056 | 0.182 | 2B6 humanized anti-CD4 antibody (antibody, V domains shown, Expressed as heavy and light chains in Freestyle 293 cells; also called Humanized 2B6) VH: QVQLQESGPGLVKPSETLSLTCTVSGDSITSGYWNWIRQPPGKGLEFLGYISFADTTNYNPSLKSRVTISRDTSKNQFSLKLSSVTAADTAVYYCARDDYGYYAMDYWGQGTLVTVSS VL: DIQLTQSPSSLSASVGDRVTITCRASQDIDNYLNWYQQKPGKAPKLLIYYTSRLHSGVPSRFSGSGSGTDYTLTISSLQPEDFATYYCQQGNTLPTFGQGTKLEIK |
